This passage reports binding result, EC50 and Bmax signal results from patent publication US20230212268A1 (UNM RAINFOREST INNOVATIONS, published 2023).

The target in assay [1] is T1, recombinant EBOV glycoprotein (EBOV (Zaire ebolavirus), UniProt Q05320 33-650).
T1 sequence: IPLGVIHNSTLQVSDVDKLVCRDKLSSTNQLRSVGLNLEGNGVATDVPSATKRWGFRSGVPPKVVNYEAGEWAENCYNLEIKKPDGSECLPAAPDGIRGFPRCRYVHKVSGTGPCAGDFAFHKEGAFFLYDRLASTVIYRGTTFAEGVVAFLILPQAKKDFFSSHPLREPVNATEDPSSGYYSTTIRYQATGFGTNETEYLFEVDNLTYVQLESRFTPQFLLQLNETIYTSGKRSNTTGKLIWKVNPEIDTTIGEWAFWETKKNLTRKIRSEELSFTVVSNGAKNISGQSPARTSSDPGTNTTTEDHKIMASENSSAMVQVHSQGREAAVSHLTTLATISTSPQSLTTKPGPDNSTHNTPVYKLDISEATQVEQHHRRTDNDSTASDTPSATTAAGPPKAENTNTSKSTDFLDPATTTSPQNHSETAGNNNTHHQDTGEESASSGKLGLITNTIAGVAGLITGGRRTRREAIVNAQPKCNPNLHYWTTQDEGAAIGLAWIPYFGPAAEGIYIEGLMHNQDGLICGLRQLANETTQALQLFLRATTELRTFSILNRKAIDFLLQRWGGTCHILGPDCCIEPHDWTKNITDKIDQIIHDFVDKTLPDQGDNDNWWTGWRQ
Briefly: ELISA, GP coated. (An ELISA detects its analyte on a solid surface through an enzyme-linked reagent.)

In assay [2] the target is T2, recombinant SUDV glycoprotein (SUDV (Sudan ebolavirus), UniProt Q7T9D9 33-650).
T2 sequence: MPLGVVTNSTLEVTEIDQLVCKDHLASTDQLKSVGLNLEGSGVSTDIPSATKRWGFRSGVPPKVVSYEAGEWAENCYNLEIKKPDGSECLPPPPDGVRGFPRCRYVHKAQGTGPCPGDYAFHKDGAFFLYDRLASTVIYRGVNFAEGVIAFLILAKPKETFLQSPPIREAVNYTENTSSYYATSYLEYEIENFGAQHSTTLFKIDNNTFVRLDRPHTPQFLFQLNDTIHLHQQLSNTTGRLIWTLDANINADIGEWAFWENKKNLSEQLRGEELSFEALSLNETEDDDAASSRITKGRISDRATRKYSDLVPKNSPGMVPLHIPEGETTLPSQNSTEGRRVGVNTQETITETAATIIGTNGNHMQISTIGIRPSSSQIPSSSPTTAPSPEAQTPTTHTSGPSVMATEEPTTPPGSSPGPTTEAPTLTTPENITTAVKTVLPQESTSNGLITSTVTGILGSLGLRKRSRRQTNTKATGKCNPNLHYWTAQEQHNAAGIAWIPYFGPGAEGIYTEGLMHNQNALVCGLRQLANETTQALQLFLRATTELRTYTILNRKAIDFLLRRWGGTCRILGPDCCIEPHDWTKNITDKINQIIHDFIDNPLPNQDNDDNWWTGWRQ
Briefly: ELISA dose response, GP coated.

Assay [3] addresses T3, recombinant TAFV glycoprotein (TAFV (Tai Forest virus), UniProt Q66810 33-650).
T3 sequence: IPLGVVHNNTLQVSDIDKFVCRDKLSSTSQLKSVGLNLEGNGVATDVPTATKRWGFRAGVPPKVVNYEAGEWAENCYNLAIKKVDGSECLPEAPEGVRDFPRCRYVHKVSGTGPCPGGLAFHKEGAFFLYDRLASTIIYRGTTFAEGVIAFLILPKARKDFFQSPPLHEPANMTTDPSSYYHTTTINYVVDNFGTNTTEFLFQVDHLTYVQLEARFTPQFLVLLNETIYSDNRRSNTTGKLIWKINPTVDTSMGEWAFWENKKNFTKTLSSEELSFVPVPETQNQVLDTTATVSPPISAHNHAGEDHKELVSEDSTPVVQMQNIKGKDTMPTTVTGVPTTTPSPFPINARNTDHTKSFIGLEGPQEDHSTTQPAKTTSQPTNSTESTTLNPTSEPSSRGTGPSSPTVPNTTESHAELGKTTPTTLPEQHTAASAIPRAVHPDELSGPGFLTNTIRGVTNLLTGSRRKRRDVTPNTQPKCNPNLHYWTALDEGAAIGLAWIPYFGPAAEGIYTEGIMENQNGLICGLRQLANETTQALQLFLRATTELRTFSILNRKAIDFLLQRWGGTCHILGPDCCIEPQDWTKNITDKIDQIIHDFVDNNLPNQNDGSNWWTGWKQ
Briefly: ELISA dose response, GP coated.

The target in assay [4] is T4, recombinant RESTV glycoprotein (RESTV (Reston ebolavirus), UniProt Q66799 34-651).
T4 sequence: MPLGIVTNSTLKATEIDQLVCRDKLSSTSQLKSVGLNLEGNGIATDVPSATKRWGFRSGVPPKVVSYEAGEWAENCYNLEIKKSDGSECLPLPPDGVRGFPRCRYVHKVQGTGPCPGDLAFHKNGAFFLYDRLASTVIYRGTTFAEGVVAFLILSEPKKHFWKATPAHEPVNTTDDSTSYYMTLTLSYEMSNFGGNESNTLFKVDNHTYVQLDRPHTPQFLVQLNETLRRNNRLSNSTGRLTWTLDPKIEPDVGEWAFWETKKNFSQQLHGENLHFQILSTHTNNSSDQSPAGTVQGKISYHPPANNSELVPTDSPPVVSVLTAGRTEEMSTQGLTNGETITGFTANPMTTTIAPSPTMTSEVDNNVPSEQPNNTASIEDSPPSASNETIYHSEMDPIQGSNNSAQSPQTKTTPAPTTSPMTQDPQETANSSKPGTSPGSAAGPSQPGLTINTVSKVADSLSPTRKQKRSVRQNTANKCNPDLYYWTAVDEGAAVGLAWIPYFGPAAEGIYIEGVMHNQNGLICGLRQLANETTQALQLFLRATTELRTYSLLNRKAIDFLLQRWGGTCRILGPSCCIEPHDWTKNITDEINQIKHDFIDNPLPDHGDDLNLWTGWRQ
In words: ELISA dose response, GP coated.

The target in assay [5] is T1, recombinant EBOV glycoprotein. In words: ELISA dose response, GP coated.
For assay [6], the target named is T5, recombinant MARV glycoprotein (MARV (marburgvirus, Ravn), UniProt Q1PDC7 19-648).
T5 sequence: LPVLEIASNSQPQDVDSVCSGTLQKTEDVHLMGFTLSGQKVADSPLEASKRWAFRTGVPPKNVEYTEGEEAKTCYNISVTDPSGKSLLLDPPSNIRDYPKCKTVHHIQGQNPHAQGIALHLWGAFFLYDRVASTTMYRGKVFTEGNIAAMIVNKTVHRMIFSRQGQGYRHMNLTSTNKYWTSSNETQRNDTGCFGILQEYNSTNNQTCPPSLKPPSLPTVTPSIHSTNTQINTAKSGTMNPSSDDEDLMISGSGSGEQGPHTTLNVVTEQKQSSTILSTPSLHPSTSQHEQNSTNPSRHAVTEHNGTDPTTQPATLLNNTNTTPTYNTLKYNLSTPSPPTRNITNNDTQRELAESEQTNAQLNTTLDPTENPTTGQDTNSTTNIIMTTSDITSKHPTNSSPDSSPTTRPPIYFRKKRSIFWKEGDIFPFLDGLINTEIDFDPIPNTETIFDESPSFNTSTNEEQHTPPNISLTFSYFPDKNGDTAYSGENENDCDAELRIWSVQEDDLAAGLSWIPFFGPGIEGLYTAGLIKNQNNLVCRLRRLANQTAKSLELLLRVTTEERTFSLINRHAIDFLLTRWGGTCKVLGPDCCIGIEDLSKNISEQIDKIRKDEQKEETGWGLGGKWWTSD
In words: ELISA dose response, GP coated.

For assay [7], the target named is T2, recombinant SUDV glycoprotein. In words: maximal binding from ELISA dose-response fit.
In assay [8] the target is T3, recombinant TAFV glycoprotein. Briefly: maximal binding from ELISA dose-response fit.
Assay [9] deals with T4, recombinant RESTV glycoprotein. In words: maximal binding from ELISA dose-response fit.
The target in assay [10] is T1, recombinant EBOV glycoprotein. Briefly: maximal binding from ELISA dose-response fit.
The target of assay [11] is T5, recombinant MARV glycoprotein. In words: maximal binding from ELISA dose-response fit.
For assay [12], the target named is T3, recombinant TAFV glycoprotein.
Assay [13] has as its target T2, recombinant SUDV glycoprotein. In words: ELISA, GP coated.
Assay [14] has as its target T3, recombinant TAFV glycoprotein. In words: ELISA, GP coated.
Assay [15] addresses T4, recombinant RESTV glycoprotein. Briefly: ELISA, GP coated.
For assay [16], the target named is T5, recombinant MARV glycoprotein. Briefly: ELISA, GP coated.

A word on the EC50: it is the concentration at which the effect is half-maximal.

“And” between values parts separate entries of the source, which are not always exact repeats. Identical values can stand only once. Like-named read-outs stand apart in the source and are kept apart here.

B1: EbovGPscFv13-1 (scFv)
scFv: MAWSHPQFEKTGSGQVQLQQSGAELVKPGASVKLSCKASGYTFTEYTIHWVKQRSGQGLEWIGWFYPGSGSIKYDEKFKDKATLTADKSSSTVYMELSRLTSEDSAVYFCARHEPYYYGSSYEGPFDYWGQGTTLTVSSGGGGSGGGGSGGGGSGGGGSSPLSVSAGEKVTMSCKSSQSLLNSGNQKNYLAWYQQKPGQPPKLLIYGASTRESGVPDRFTGSGSGTDFTLTISSVQAEDLAVYYCQNDHSYPLTFGAGTKLELKRADAAPTVSIFPPSSEQLTSGGASVVCFLNNFTHCQELQQDECS
For B1, in assay [1], the binding result is given as “binds”.

B2: EbovGPscFv22-1 (scFv)
scFv: MAWSHPQFEKTGSGQVQLQQPGTELVKPGASVKLSCKASGYTFTSYWMHWVKQRPGQGLEWIGNTNPSNGGTNYNEKFKSKATLTVDKSSNTAYMQLSSLTSEDSAVYYCARSVSGNFAYWGQGTLVTVSAGGGGSGGGGSGGGGSGGGGSLSLPVSLGDQASISCRSSQSLVHSNGNTYLHWYLQKPGQSPKLLIYKVSNRFSGVPDRFSGSGSGTDFTLKISRVEAEDLGVYFCSQSTHVPWTFGGGTKLEIKRADAAPTVSIFPPSSEQLTSGGASVVCFLNNFTHCQELQQDECS
For the molecule B2, the EC50 in assay [2] was < 12 µg/mL and 7.94 µg/mL; in assay [3] it was 11.6 µg/mL and < 12 µg/mL; in assay [4], 9 µg/mL and < 12 µg/mL; in [5], < 12 µg/mL and 7.36 µg/mL; in assay [6] it was < 12 µg/mL and 6.58 µg/mL; in assay [12] it was 12 µg/mL. Also, the Bmax signal in assay [7] is 280000 relative absorbance units; in assay [8], 270000 relative absorbance units; in [9], 320000 relative absorbance units; in assay [10], 370000 relative absorbance units; in [11], 250000 relative absorbance units.

B3: EbovGPscFv27-5 (scFv)
scFv: MAWSHPQFEKTGSGQVQLQQSGAELVKPGASVKSSCTATGFNIKDYYIHWVKQRTEQGLEWIGRIDPEDGETKYAPKFQGKATITADISPNTAYLQPSSLTSEDTAVYYCTRGGYYGPWYFDVWGTGTTVTVSSGGGGSGGGGSGGGGSGGGGSASLSVSVGETVTITCRASENIYSYLAWYQQKQGKSPQLLVYNAKTLAEGVPSRFSGSGSGTQFSLKINNLQPEDFGSYYCQRHYDTPYTFGGGTKLEIKRADAAPTVSIFPPSSEQLTSGGASVVCFLNNFTHCQELQQDECS
On to B3, for which the binding result in assay [13], in assay [14], in assay [15] and in assay [16] was “no binding” throughout.

B4: EbovGPscFv35-2 (scFv)
scFv: MAWSHPQFEKTGSGDVKLQESGPGLVKPSQSLSLTCSVTGYSITSGYYWNWIRQFPGNKLEWMGYISYDGSNNYNPSLKNRISITRDTSKNQFFLKLNSVTTEDTATYYCARESPYYGSSHWYFGVWGTGTTVTVSSGGGGSGGGGSGGGGSGGGGSASLSASVGETVTITCRTSENIYSYLAWYQQKQGKSPQLLVYNAKTLAEGVPSRFSGSGSGTQFSLKINSLQPEDFGSYYCQHHYGIPPWTFGGGTKLEIKRADAAPTVSIFPPSSEQLTSGGASVVCFLNNFTHCQELQQDECS
B4: in assay [1], the binding result is given as “binds”.

B5: EbovGPscFv16-1 (scFv)
scFv: MAWSHPQFEKTGSGGAELVRSGASVKLSCTASGFNIKDDYMHWVKQRPEQGLKWIGWIDPENGDTEYASKLQGKATITADTSSNTAYLQLSSLTSEDTAVYYCARPIYYYGSSHWYFDVWGTGTTVTVSSGGGGSGGGGSGGGGSGGGGSLSLPVSLGDQASISCRSSQSLVHSNGNTYLHWYLQKPGQSPKLLIYKVSNRFSGVPDRFSGSGSGTDFTLKISRVEAEDLGVYFCSQSTHVPWTFGGGTKLEVKRADAAPTVSIFPPSSEQLTSGGASVVCFLNNFTHCQELQQDECS
On to B5, for which the binding result in assay [1] is reported as “binds”.
